Measured values reported in US20250051433A1.
Each block holds one substance with its values, some of them ahead of it.

Key:
[1] = biological target: membrane short-form huTSLP fusion protein (human); test: FACS on cells expressing membrane short-form huTSLP, MFI; ambiguous fit of a flat curve (Bottom 692.9, Top 827.7), see non_binding; unit taken from the concentration axis
[2] = biological target: human long-form TSLP protein (Acro, tsp-h5255 or tsp-h52ha) (human) (UniProt Q969D9); test: ELISA on coated human long-form TSLP, OD450; ambiguous fit of a flat curve (Bottom 0.07414, Top ~ 1078), see non_binding; unit taken from the concentration axis
[3] = biological target: human long form TSLP expressed on cell membrane; test: FACS on cells expressing the membrane human long-form TSLP fusion protein, MFI; fit of a flat curve (Bottom 695.0, Top 1001), see non_binding; unit taken from the concentration axis
[4] = biological target: human long form TSLP expressed on cell membrane; test: FACS on cells expressing the membrane human long-form TSLP fusion protein, MFI; ambiguous fit of a flat curve (~ 906.7, ~ 1190), column headed IC50, see non_binding; unit taken from the concentration axis
[5] = biological target: human long form TSLP expressed on cell membrane; test: FACS on cells expressing the membrane human long-form TSLP fusion protein, MFI; ambiguous fit of a flat curve (Bottom 799.3, Top 857.9), see non_binding; unit taken from the concentration axis
[6] = biological target: human long form TSLP expressed on cell membrane; test: FACS on cells expressing the membrane human long-form TSLP fusion protein, MFI; fit of a flat curve (Bottom 626.4, Top ~ 628.6), see non_binding; unit taken from the concentration axis
[7] = biological target: human long form TSLP expressed on cell membrane; test: FACS on cells expressing the membrane human long-form TSLP fusion protein, MFI; ambiguous fit of a flat curve (Bottom 609.8, Top ~ 596.1), see non_binding; unit taken from the concentration axis

Chain of human long form TSLP expressed on cell membrane (fusion protein, as listed by the source): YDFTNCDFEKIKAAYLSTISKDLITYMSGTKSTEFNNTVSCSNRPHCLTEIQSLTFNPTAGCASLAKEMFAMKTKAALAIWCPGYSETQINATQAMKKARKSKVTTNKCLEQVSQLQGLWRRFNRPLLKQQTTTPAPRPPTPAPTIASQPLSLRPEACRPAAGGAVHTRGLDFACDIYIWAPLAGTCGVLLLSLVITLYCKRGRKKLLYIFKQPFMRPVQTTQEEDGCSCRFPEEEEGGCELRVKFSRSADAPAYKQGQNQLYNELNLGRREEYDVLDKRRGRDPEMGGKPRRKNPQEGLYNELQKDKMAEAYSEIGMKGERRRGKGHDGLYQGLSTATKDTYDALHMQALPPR
Chain of human long-form TSLP protein (Acro, tsp-h5255 or tsp-h52ha) (human) (Q969D9 29-159 R127A/R130A limits assumed): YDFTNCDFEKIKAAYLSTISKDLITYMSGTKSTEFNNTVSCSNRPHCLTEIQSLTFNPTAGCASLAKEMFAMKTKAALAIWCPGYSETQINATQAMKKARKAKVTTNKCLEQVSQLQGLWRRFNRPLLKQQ
Chain of membrane short-form huTSLP fusion protein (human) (chain, as listed by the source limits assumed): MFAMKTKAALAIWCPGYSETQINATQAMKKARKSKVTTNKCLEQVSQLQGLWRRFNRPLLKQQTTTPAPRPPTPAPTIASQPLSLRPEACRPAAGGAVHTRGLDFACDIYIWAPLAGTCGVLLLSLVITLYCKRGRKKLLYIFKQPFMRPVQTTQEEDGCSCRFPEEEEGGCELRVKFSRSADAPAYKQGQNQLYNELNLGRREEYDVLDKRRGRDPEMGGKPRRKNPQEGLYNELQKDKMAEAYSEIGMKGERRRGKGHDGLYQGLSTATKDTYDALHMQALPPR

EC50 [1]: 0.0115 µg/mL | EC50 [2]: 40.8 µg/mL
Substance: Isotype mAb (antibody)

EC50 [3]: 21.1 µg/mL | EC50 [4]: 0.0411 µg/mL
Substance: Isotype (antibody)

EC50 [5]: 0.0117 µg/mL | EC50 [6]: 5.86 µg/mL | EC50 [7]: 0.322 µg/mL
Substance: IgG2 Isotype (antibody)
